According to article PMC4431665:

Assays:
[1] = biological target: Hsp70 E. coli T504E phosphomimic variant (human) (UniProt P0DMV8); experiment: native MS; labeled wild-type Hsp70 E. coli and the T504E variant examined in a 1:1 ratio (Figure S1C)
[2] = biological target: Hsp70 E. coli V438F/T504E substrate-binding-deficient variant (human) (UniProt P0DMV8); experiment: not stated; dimerization of the V438F/T504E mutant (Figure S4B); method not given
Hsp70 = experiment: comparative BS3 cross-linking with LC-MS/MS; conditions: reference: Hsp70 expressed in E. coli; sites T504
[3] = biological target: Hsp70 expressed in E. coli (Hsp70 E. coli) (human) (UniProt P0DMV8); experiment: native MS; 1:1 ratio of 13C-labeled Hsp70 E. coli and Hsp70Sf9 with catalytic amounts of Hsp40 and ATP
[4] = biological target: Hsp70 expressed in E. coli (Hsp70 E. coli) (human) (UniProt P0DMV8); experiment: native MS; Hsp70 E. coli at a higher concentration under which dimerization occurs, with phosphatase, 48 hr (Figures S1A and S1B)
[5] = biological target: Hsp70 expressed in E. coli (Hsp70 E. coli) (human) (UniProt P0DMV8); experiment: native MS; 1:1 mixture of 13C-labeled Hsp70 E. coli and Hsp70Sf9 at 8 μM; parameters designed to preserve non-covalent interactions
[6] = biological target: Hsp90_(2)Hop complex (human) (UniProt P07900); experiment: native MS; Hsp90 and Hop with either Hsp70 E. coli or Hsp70Sf9, in the absence of Hsp40
[7] = biological target: Hsp70 expressed in Sf9 insect cells (Hsp70Sf9) (human) (UniProt P0DMV8); experiment: native MS; 1:1 ratio of 13C-labeled Hsp70 E. coli and Hsp70Sf9 with catalytic amounts of Hsp40 and ATP
[8] = biological target: Hsp70 expressed in Sf9 insect cells (Hsp70Sf9) (human) (UniProt P0DMV8); experiment: cross-linking; BS3 on Hsp70Sf9 in excess ATP (also ADP, ATPγS); SDS-PAGE, monomer and dimer bands digested with trypsin, LC-MS/MS
[9] = biological target: Hsp70 expressed in Sf9 insect cells (Hsp70Sf9) (human) (UniProt P0DMV8); experiment: native MS; 1:1 mixture of 13C-labeled Hsp70 E. coli and Hsp70Sf9 at 8 μM; parameters designed to preserve non-covalent interactions
[10] = biological target: Hsp70 expressed in Sf9 insect cells (Hsp70Sf9) (human) (UniProt P0DMV8); experiment: native MS; 2 μM Hsp70Sf9, 0.5 μM Hsp40, 200 μM ATP/Mg2+, binding buffer with 50, 100 or 300 mM KCl, 1 hr at room temperature; buffer exchanged to 100 mM AmAc
[11] = biological target: Hsp70 expressed in Sf9 insect cells (Hsp70Sf9) (human) (UniProt P0DMV8); experiment: native MS; 1:1 mixture of 3 μM 13C-labeled Hsp70 E. coli and Hsp70Sf9, incubated without phosphatase in 100 mM AmAc pH 7.5 at 4°C for 16 hr; high backing pressure
Hsp90 (human) [12] = biological target: Hsp90 (human) (UniProt P07900); experiment: native MS; Hsp90 and Hop with either Hsp70 E. coli or Hsp70Sf9, in the absence of Hsp40
Hsp90 (human) [13] = biological target: Hsp90 (human) (UniProt P07900); experiment: native MS; stoichiometric amounts of p23 added to the client-loading complex Hsp90_(2)Hsp70_(2)HopGR
Hsp90 (human) [14] = biological target: Hsp90 (human) (UniProt P07900); experiment: native MS; Hsp70GR complex formed with catalytic Hsp40 (0.3 μM) and ATP, then incubated with Hsp90_(2)Hop; Hsp90, Hop, Hsp70 and GR equimolar (1 μM each), or two Hsp70 per Hsp90_(2)
Yeast Hsp40 (yeast) = Yeast Hsp40 (yeast) (UniProt P25491); experiment: native MS; Hsp40 alone, 100 mM ammonium acetate pH 7.5 (Figure S5C)

Hsp70 E. coli T504E phosphomimic variant (from UniProt P0DMV8 1-641) (natural protein)
stoichiometry N [1]: 2

Hsp70 E. coli V438F/T504E substrate-binding-deficient variant (from UniProt P0DMV8 1-641) (natural protein)
stoichiometry N [2]: 2

Hsp70 Hsp70 expressed in Sf9 cells
other: K569-K108 cross-link intensity ratio (Hsp70): stronger; reference 1.0

Hsp70 expressed in E. coli (Hsp70 E. coli) (from UniProt P0DMV8 1-641) (natural protein)
stoichiometry N [3]: 2 | stoichiometry N [4]: 2 | stoichiometry N [5]: 2

Hsp70 expressed in Sf9 insect cells (Hsp70Sf9) (from UniProt P0DMV8 1-641) (natural protein)
stoichiometry N [6]: 2 | stoichiometry N [7]: 2 | stoichiometry N [8]: 2 | stoichiometry N [9]: 2 | stoichiometry N [10]: 2 | stoichiometry N [11]: 2

Hsp90 (from UniProt P07900 1-732) (natural protein)
stoichiometry N (Hsp90 (human) [12]): 2 | stoichiometry N (Hsp90 (human) [13]): 2 | stoichiometry N (Hsp90 (human) [14]): 2

Yeast Hsp40 (from UniProt P25491 1-409) (natural protein)
stoichiometry N (Yeast Hsp40 (yeast)): 2
